Assay results reported in the supplement of paper PMC12042874.
± gives the uncertainty stated by the source.

Test: amyloid nucleation score (Sup35N fusion, yeast selection) (log enrichment); library NNK3; higher = more nucleation; inactive = no reads after selection
Outline: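 On medium lacking adenine and uracil, psi-negative yeast expressing peptides of 20 random codons fused to Sup35N were grown 7 days at 30°C after a 24-hour induction with 100 μM copper sulfate. Illumina sequencing of input and output plasmid inserts gave the reads, and sequences under 100 input reads were excluded. The nucleation score is the DiMSum log enrichment of output over input reads, centred on the mode score of non-aggregating sequences.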
With PVECLDNDQGFLWPEVRVRG the amyloid nucleation score was “inactive”.
In the case of PGDNIYILMGVYKGILWWAE, the amyloid nucleation score is reported as “inactive”.
With NRKNTKHLIFFYVFVT the amyloid nucleation score was “inactive”.
In the case of SLPYCGVTSLSHSWVPMAIR, the amyloid nucleation score is reported as “inactive”.
For TCEWLSNYFKDLFIMVLSIS, the amyloid nucleation score was “inactive”.
Substance VRKKCLDPDGFLSRLGPAFD has an amyloid nucleation score of -0.429 ± 0.91.
For WTLFWNPLI, the amyloid nucleation score was “inactive”.
In the case of NLVYLLLRLYMMTFYQQRCP, the amyloid nucleation score is reported as “inactive”.
With FSSRKSLCGLDLKECFTSVE the amyloid nucleation score was “inactive”.
For ILTWRRFVFFLDWVDFTSQG, the amyloid nucleation score was “inactive”.
With VLYVRNLMLYGNLCKALLAF the amyloid nucleation score was “inactive”.
FVGYINILLIADSALGVRIL showed an amyloid nucleation score of 1.64 ± 0.076.
Substance GSLMTRRDLRKSPILIYRDG has an amyloid nucleation score of -0.819 ± 0.75.
In the case of NVIYFHTQGMY, the amyloid nucleation score is reported as “inactive”.
In the case of CFKFWWGIRENFKFLGDVMR, the amyloid nucleation score is reported as “inactive”.
For KIVLDRARDWQL, the amyloid nucleation score was 0.094 ± 0.41.
With TVTLRRYLSMERPYTSIFSI the amyloid nucleation score was “inactive”.
In the case of KCAVDTV, the amyloid nucleation score is reported as “inactive”.
For FTRNEQP, the amyloid nucleation score was “inactive”.
With NRVED the amyloid nucleation score was “inactive”.
In the case of IIPYHEFIVGALVSHRWCQD, the amyloid nucleation score is reported as “inactive”.
In the case of EVLLFVFKEGTHLVGLW, the amyloid nucleation score is reported as “inactive”.
In the case of YRIVVVMMAIISTNDNIP, the amyloid nucleation score is reported as 0.371 ± 0.26.
For ISILDLSSTF, the amyloid nucleation score was “inactive”.
THIGFFFNCIL gave an amyloid nucleation score of 2.56 ± 0.082.
For VLGILVDFDLIKV, the amyloid nucleation score was “inactive”.
With YAWLCAASRYKTMVESLAEF the amyloid nucleation score was “inactive”.
In the case of NRRYFVELCGGNFM, the amyloid nucleation score is reported as “inactive”.
For DTRGTARKPKSLSTRLEIRV, the amyloid nucleation score was “inactive”.
With FQPSSASPIGWIGMSAFDSW the amyloid nucleation score was “inactive”.
With LFEVSS the amyloid nucleation score was “inactive”.
In the case of ICPWDIQRINMLMGRVDWLR, the amyloid nucleation score is reported as “inactive”.
With RINSRHLLNVLAVRKTIQGS the amyloid nucleation score was “inactive”.
With SYMLWYSS the amyloid nucleation score was “inactive”.
In the case of WLRSVLLRVTLLNSWHSWVS, the amyloid nucleation score is reported as “inactive”.
In the case of KDYLLSSYCEECHDHSSSEL, the amyloid nucleation score is reported as “inactive”.
Substance QSDHTLPMCRSSLRICVSGR has an amyloid nucleation score of 1.75 ± 0.07.
For TRTHPDVNRAKMDVKGDAKI, the amyloid nucleation score was “inactive”.
Work on ECYMVCFDSCSNIMFVLDLE yielded an amyloid nucleation score of 1.92 ± 0.095.
For AKQVGLY, the amyloid nucleation score was “inactive”.
With RSTVLIPWVDNTCTDQSSGW the amyloid nucleation score was 0.25 ± 0.21.
In the case of SWGMLSY, the amyloid nucleation score is reported as “inactive”.
With AITGFNRKVDYLGSGECVEH the amyloid nucleation score was “inactive”.
With ISRNRQRSVIPGTTKLCMWV the amyloid nucleation score was “inactive”.
For YLHYRHYSSVCFYFSSNISN, the amyloid nucleation score was “inactive”.
In the case of CGFAHFRNVALGWWYGVTLN, the amyloid nucleation score is reported as “inactive”.
With KALSCSRSFAVKVVYTQDP the amyloid nucleation score was “inactive”.
For NRKGIR, the amyloid nucleation score was -0.009 ± 0.58.
For TKRWFGLCYESVKLRVRSFA, the amyloid nucleation score was “inactive”.
With SYMQMTELKEAP the amyloid nucleation score was “inactive”.
In the case of MVNWPDGRILGSLRNWRHQD, the amyloid nucleation score is reported as “inactive”.
In the case of INLNYDLKFGYVYHMLFT, the amyloid nucleation score is reported as “inactive”.
With LCYCLKAVDYRLNFFHKWRH the amyloid nucleation score was “inactive”.
With YHWSGRLL the amyloid nucleation score was “inactive”.
In the case of LYIPMQLQCCAIMEGYAILF, the amyloid nucleation score is reported as 1.6 ± 0.078.
VTRSDGTTISYNISIKLGKG showed an amyloid nucleation score of 2.2 ± 0.071.
In the case of IMSRCISTHLG, the amyloid nucleation score is reported as “inactive”.
For VAAMSVFSVGCLINIALRSN, the amyloid nucleation score was 0.93 ± 0.2.
In the case of NHLIQIG, the amyloid nucleation score is reported as “inactive”.
Work on CKKGRLVGRSRCLVCWMCCM yielded an amyloid nucleation score of -0.155 ± 0.96.
With WGLGETCLKLSWPCRN the amyloid nucleation score was “inactive”.
With LSFVP the amyloid nucleation score was “inactive”.
For PSINWASVTVLGCAHSNFRC, the amyloid nucleation score was 2.29 ± 0.064.
For YMFRFGSTDCEAYV, the amyloid nucleation score was “inactive”.
In the case of VLGWGSIVMNDEGELSVGMV, the amyloid nucleation score is reported as “inactive”.
For LYLKYLELEILRPYGAFICH, the amyloid nucleation score was “inactive”.
For TLVGFRALKYIRWTCLAHRF, the amyloid nucleation score was “inactive”.
For FMEYFTCGV, the amyloid nucleation score was “inactive”.
In the case of MPNYNLSGLNWVRCG, the amyloid nucleation score is reported as “inactive”.
For RMRCAAVRAARAVPATKGEG, the amyloid nucleation score was “inactive”.
With VEFSAIFFCTLLD the amyloid nucleation score was “inactive”.
For LLVLRGYSDVIFKNTLYGNE, the amyloid nucleation score was “inactive”.
With SVIRWFVTLWLGEHLRASDT the amyloid nucleation score was “inactive”.
Work on RYCNVFVKIVALCGYKGSWS yielded an amyloid nucleation score of 2.64 ± 0.06.
For LFIMFCFGIRCLEPDIRHCY, the amyloid nucleation score was “inactive”.
For IIMSLLIALP, the amyloid nucleation score was 0.653 ± 0.18.
In the case of HRFAGTKVALYGVKLGGARY, the amyloid nucleation score is reported as “inactive”.
Work on MLMAPSYEYT yielded an amyloid nucleation score of -0.209 ± 0.78.
In the case of SRFVYSSGY, the amyloid nucleation score is reported as “inactive”.
For LVCFPGTSFAGVCDW, the amyloid nucleation score was “inactive”.
With TLFSSCGLVHLLNCMRWPPG the amyloid nucleation score was “inactive”.
In the case of CPRDNVSIVKWWLAYRDSHA, the amyloid nucleation score is reported as “inactive”.
With GTDWLDMVILGEPFYMYLST the amyloid nucleation score was “inactive”.
With VYCHC the amyloid nucleation score was “inactive”.
With IRLVPWFW the amyloid nucleation score was “inactive”.
With FSYCG the amyloid nucleation score was “inactive”.
In the case of YSMQGYRCMYLGDNVAVLAF, the amyloid nucleation score is reported as “inactive”.
With GIMDLDEGLET the amyloid nucleation score was “inactive”.
With CNVNTLIFGRESNSSEHKHW the amyloid nucleation score was 1.83 ± 0.081.
With SRVISLFSGVCRGLRGYVNR the amyloid nucleation score was “inactive”.
For KSLTAYSLFVASYLSSFEWG, the amyloid nucleation score was “inactive”.
With QVTDEGD the amyloid nucleation score was “inactive”.
Substance LCFRLDVSRMCTVSGNIGYC has an amyloid nucleation score of 1.57 ± 0.079.
With LFLKSLCCFRICTNFIKVEL the amyloid nucleation score was “inactive”.
In the case of LSNMMVVPSTSERFFFRAMG, the amyloid nucleation score is reported as “inactive”.
For EMMLWSFNREFMTFYTRSVD, the amyloid nucleation score was “inactive”.
With DICEIRTTIRAC the amyloid nucleation score was “inactive”.
In the case of EVSFDNLRGWH, the amyloid nucleation score is reported as “inactive”.
With YGNHFSNNDGSIFER the amyloid nucleation score was “inactive”.
With KLCYTASEWSGNSLNVVRNK the amyloid nucleation score was “inactive”.
With ALSAYQGVFSYWCRWQWLVA the amyloid nucleation score was “inactive”.
For ETMVIDWCSTVDRVR, the amyloid nucleation score was “inactive”.
For NYSSAQEYKVSQERIS, the amyloid nucleation score was “inactive”.
For FFLVLNSACME, the amyloid nucleation score was 0.058 ± 0.36.
Substance RILVMVNKG has an amyloid nucleation score of 0.81 ± 0.17.
For CTSTLMEFSFSYEWSNGCCS, the amyloid nucleation score was “inactive”.
In the case of NSNSGFLVSFLWLSFWNSIS, the amyloid nucleation score is reported as “inactive”.
In the case of LFLDVSIYVCPEGILRKS, the amyloid nucleation score is reported as 2.65 ± 0.084.
For FLCMLVYI, the amyloid nucleation score was 1.23 ± 0.11.
For YNSFSDYYSVFTQHVRDS, the amyloid nucleation score was “inactive”.
In the case of MSLLGQ, the amyloid nucleation score is reported as “inactive”.
With FCKMVFLGTAVRCVVKLQSV the amyloid nucleation score was “inactive”.
For LCGCS, the amyloid nucleation score was “inactive”.
With IIELYT the amyloid nucleation score was “inactive”.
With TSLLGLRKHFLPHLIYMRNS the amyloid nucleation score was “inactive”.
In the case of TAESTDCG, the amyloid nucleation score is reported as “inactive”.
AYMCCYDAYTPRRSRCDWYI showed an amyloid nucleation score of -0.402 ± 1.1.
With SRLMRKRISA the amyloid nucleation score was “inactive”.
In the case of TSQGIYHVVCCSSSEFRTLG, the amyloid nucleation score is reported as 2.48 ± 0.055.
For VEWLTSLVVIFWNFGKNKFL, the amyloid nucleation score was “inactive”.
In the case of FYMFDSRLLFWRYCCWKFSY, the amyloid nucleation score is reported as “inactive”.
With YWGKRSF the amyloid nucleation score was “inactive”.
In the case of LWTELYVYPLNMTVMVAIF, the amyloid nucleation score is reported as “inactive”.
Substance LLVYAVENPGLVWNSRHGLF has an amyloid nucleation score of -1.37 ± 2.5.
In the case of WGLLV, the amyloid nucleation score is reported as “inactive”.
In the case of VKISMNYKTQLTWLLFAWIL, the amyloid nucleation score is reported as “inactive”.
With SEGSNNVSCSI the amyloid nucleation score was “inactive”.
In the case of CKLCTFSKRLNLTFRMVASL, the amyloid nucleation score is reported as “inactive”.
For CGCYSLMFFSMTCNEKLLSL, the amyloid nucleation score was “inactive”.
Work on SFSLYLFPSRGLAPLPTAWL yielded an amyloid nucleation score of 1.86 ± 0.089.
In the case of LTWLYDDDVSKFRTLLKFRS, the amyloid nucleation score is reported as “inactive”.
With GDYGCFSLMQTHTEEEILMR the amyloid nucleation score was “inactive”.
MEYSRVVAL gave an amyloid nucleation score of -0.421 ± 0.66.
Substance SRYRAEIDARYNFLRGFNAC has an amyloid nucleation score of -0.449 ± 0.8.
In the case of VNGSV, the amyloid nucleation score is reported as “inactive”.
With VYKDHAIVLCWVVK the amyloid nucleation score was -0.437 ± 0.56.
In the case of VVGFMYYARFLPSDFVSINA, the amyloid nucleation score is reported as “inactive”.
LFVLSTKSLFP showed an amyloid nucleation score of 1.39 ± 0.089.
With SCKVTKHGYVKEDFIGLCSY the amyloid nucleation score was “inactive”.
For VFVMETTKLFSNDIGVRGGW, the amyloid nucleation score was 0.717 ± 0.15.
In the case of FRQLQGTSMLYLATPWS, the amyloid nucleation score is reported as “inactive”.
With VVMTDHINIKGIVEPTVTTF the amyloid nucleation score was “inactive”.
In the case of LIKCPIRYDDYKRPWLAS, the amyloid nucleation score is reported as “inactive”.
SAKIL showed an amyloid nucleation score of 0.118 ± 0.23.
For FLCIVSAYF, the amyloid nucleation score was “inactive”.
In the case of LITCI, the amyloid nucleation score is reported as “inactive”.
With CLGIGWFWVPWRLGVYSQMV the amyloid nucleation score was “inactive”.
In the case of CRLANHLEIAVAVTSYEGED, the amyloid nucleation score is reported as “inactive”.
In the case of FTFNSWSSWWNTSSFLIKGQ, the amyloid nucleation score is reported as “inactive”.
In the case of LRGTD, the amyloid nucleation score is reported as “inactive”.
MIVSSYFYLVRIQYEFHAGW showed an amyloid nucleation score of 0.172 ± 0.43.
For QSSIHTFCLTLLLSKTYSYQ, the amyloid nucleation score was “inactive”.
Substance DIDRRQRVMHSPMKAWEEVG has an amyloid nucleation score of -0.045 ± 0.98.
For MRSSIPIYVLMLIALSENSP, the amyloid nucleation score was “inactive”.
In the case of AVTSLDVGFYV, the amyloid nucleation score is reported as “inactive”.
For KLNFVGLVLRNVGSWEGHGC, the amyloid nucleation score was “inactive”.
In the case of MCRTMLSPLMR, the amyloid nucleation score is reported as “inactive”.
YCYLGG gave an amyloid nucleation score of -0.36 ± 0.8.
With DCGKRSTTINFAWNGAVQPD the amyloid nucleation score was 1.04 ± 0.18.
With FSFNAG the amyloid nucleation score was “inactive”.
With QKMCKPVFV the amyloid nucleation score was “inactive”.
In the case of GQRNVVSYTSNMNVPLFSFG, the amyloid nucleation score is reported as “inactive”.
With CLFYIRS the amyloid nucleation score was “inactive”.
